Results on one molecule are retold here after PMC4663267, “A Novel C-Terminal Domain of RecJ is Critical for Interaction with HerA in Deinococcus radiodurans”.

The target in data set [1] is T1, DrHerA (Deinococcus radiodurans, UniProt Q9RW32 1-618).
T1 sequence: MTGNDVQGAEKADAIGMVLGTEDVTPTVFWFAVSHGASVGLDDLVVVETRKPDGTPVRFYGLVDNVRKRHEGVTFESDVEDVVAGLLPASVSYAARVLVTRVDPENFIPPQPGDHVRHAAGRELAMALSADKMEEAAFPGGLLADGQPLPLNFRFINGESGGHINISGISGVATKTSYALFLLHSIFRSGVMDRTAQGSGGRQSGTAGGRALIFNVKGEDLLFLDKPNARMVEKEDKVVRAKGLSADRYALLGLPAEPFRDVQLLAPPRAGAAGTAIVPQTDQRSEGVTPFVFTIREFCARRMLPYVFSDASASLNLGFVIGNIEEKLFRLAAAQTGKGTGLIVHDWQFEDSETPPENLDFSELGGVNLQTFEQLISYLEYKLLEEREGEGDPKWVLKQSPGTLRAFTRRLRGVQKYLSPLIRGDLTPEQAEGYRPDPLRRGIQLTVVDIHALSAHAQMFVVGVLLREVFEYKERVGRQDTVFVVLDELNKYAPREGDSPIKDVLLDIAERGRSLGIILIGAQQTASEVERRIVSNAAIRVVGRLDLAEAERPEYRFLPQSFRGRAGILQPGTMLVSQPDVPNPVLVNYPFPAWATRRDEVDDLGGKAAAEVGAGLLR
The data set can be described thus: EMSA; HerA alone; EMSA: 100 nM DNA, 80 mM NaCl, 20 mM Tris-HCl pH 7.5, 1 mM DTT, 30 C, 10 min, 5% TBE native PAGE. To be noted: protein: recombinant; tags: N-terminal His6; chain copies: 6; label: 5' FAM; single strand.

Data set [2] has as its target T2, DrRecJ (Deinococcus radiodurans, UniProt D0EM60 1-705).
T2 sequence: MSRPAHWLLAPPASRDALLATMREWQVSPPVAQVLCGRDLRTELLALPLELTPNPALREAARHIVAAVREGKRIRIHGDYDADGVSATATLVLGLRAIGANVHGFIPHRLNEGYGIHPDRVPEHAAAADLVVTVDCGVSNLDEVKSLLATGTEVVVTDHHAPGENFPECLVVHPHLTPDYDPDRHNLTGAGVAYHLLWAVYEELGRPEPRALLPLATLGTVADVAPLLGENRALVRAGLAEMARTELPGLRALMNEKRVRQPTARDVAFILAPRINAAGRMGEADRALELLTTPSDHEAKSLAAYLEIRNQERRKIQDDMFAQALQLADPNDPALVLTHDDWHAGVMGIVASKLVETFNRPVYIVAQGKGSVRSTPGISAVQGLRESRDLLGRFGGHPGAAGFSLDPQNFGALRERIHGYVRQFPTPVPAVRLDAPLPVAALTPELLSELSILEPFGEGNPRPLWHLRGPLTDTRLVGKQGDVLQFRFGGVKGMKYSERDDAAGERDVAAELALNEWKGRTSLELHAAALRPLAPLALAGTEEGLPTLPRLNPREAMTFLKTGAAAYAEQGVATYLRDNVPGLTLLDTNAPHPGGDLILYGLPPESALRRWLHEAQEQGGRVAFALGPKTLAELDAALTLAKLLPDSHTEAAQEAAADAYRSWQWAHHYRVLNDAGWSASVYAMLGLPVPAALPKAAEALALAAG
Put plainly: EMSA; DNA:RecJ 1:2 to 1:16; no metal added; EMSA: 100 nM DNA, 80 mM NaCl, 20 mM Tris-HCl pH 7.5, 1 mM DTT, 30 C, 10 min, 5% TBE native PAGE. The conditions noted are these: protein: recombinant; tags: HMT (His6-MBP) tag removed by TEV; label: 5' FAM; single strand. (In general: In EMSA bound probe runs differently from free probe, usually more slowly.)

In the case of AAAAAAAAAA (ssDNA) [O1 (10 nt ssDNA)], the values for the binding result in data set [1] and in data set [2] were “no binding” and “binds”, respectively.
